# Assay results as given in patent US20260200990A1, “MODIFIED LONG PEPTIDES SUITABLE FOR USE IN IMMUNISATION” (ISABELLA PHARMA B.V., priority 2022, published 2026).
# Experiments:
# [1] = Stability of peptide mixtures under long term and accelerated storage (UPLC); format: physicochemical; conditions: peptide in mixture of 6 peptides
# Protocol: To examine the effect on stability of peptides that contain cystine (oxidized, C (C)) present in a mixture of 6 peptides, two examples of mixtures of both non-cysteine-containing (NCC1-6) and cystine-containing (SEQ ID NO: 1-6) peptides were assessed. Typical chromatograms of the two mixtures are depicted in FIG. 2. Both mixtures were placed on two different storage conditions, ‘long term storage condition’ (i.e. −20±5° C.) and ‘accelerated storage condition’ (i.e. 5±3° C.).
# The purity, the level of impurities, and the quantification per peptide of both mixtures are determined by reversed phase rapid UPLC using a mobile phase gradient of ACN/IPA and water with TFA, and UV detection at λ=220 nm. The method quantifies main peaks and impurities in mixtures of peptides. The reporting threshold for the method is 0.10% a/a.
# Both mixtures of six peptides were stored under the two conditions described and by using the analytical method as described. The stability was monitored. The quantity of each of the peptides present in the mix (assay values), the purity, and the individual impurities were measured at several timepoints over a period of 3 months. […] Furthermore, focussing on the individual impurities it is shown that no significant degradation has taken place as all levels remain constant and no new impurities have formed.
# [2] = Stability of cysteine and cystine-containing peptides in 20% v/v DMSO in WFI (UPLC-UV-MS purity); format: physicochemical; conditions: room temperature
# Protocol: To examine the effect on stability of a peptide that contains cysteine(s) (non-oxidized, C) or cystine(s) (oxidized, C (C)) in a formulation matrix (20% v/v DMSO in WFI (water for injection), four non-oxidized (SEQ ID NO: 1, 2, 3 and 4) and their oxidized, cystine-containing, peptides were manufactured and individually examined in 20% v/v DMSO (aq.)
# Each peptide (2.0 mg) was dissolved in 2.0 ml of 0.09% TFA in H2O: acetonitrile (1:1, v/v). Aliquots of 200 μL were transferred to a 1 mL amber vial and then freeze dried overnight. An aliquot (0.2 mg) was then redissolved in 20% v/v DMSO in WFI (1 mL). After swirling for 2 minutes, a sample was analyzed by UPLC-UV-MS. The remainder of the sample was stored at room temperature and analyzed at different time intervals (1 h, 2 h, 3 h, 4 h). The identity and purity of the purified peptides were then determined by UPLC-UV-MS on a Waters Acquity UPLC/TQD system using an C18 Waters Acquity BEH130 analytical column (1.7 μm particle size, 2.1×150 mm, flow 0.4 mL/min) with a linear gradient (5% B to 95% B, linear gradient in 10 min). The absorbance was measured at 220 nm.
# MassLynx v4.1 was used to integrate the individual peaks of the chromatogram in the region of the observed peptide-derived signals. The following ApexTrack peak detection parameters were used for integration: peak-to-peak baseline noise was set at automatic, peak width at 5% height was set at automatic, baseline start threshold of 0.05% and baseline end threshold of 0.05%. The detect shoulder function was turned on. The following response thresholds were set: relative height of 0.20 and relative area of 0.10. After the peak of the desired peptide was identified by MS, the corresponding integral of the peak in the UV chromatogram is reported in Table 2 as percentage of the total integrated peaks, purity (% a/a).
# Purity of the non-oxidized and oxidized peptide composition over time was evaluated over 4 h. Additional mass adducts, consistent with the formation of intermolecular or intramolecular disulfide bonds, increased over time in all spectra of cysteine-containing peptides compared to cystine-containing peptides. The purity of the non-oxidized peptides set forth in SEQ ID NO: 1, 3 and 4 declined from >90% a/a at to less than 80% a/a with the lowest stability observed for SEQ ID NO: 1 with a purity of 64% a/a after 4 h. For the cystine-containing peptide analogs, the purity remained >90% a/a after 4 h.
# [3] = system: T cells cultured from PBMC from healthy donors; assay: T cell induction by PRAME-based SLPs, IFNy ELISpot (test 1 and test 2); design: species or system human; key to ELISPOT IFNy / ELISPOT IFNy, summary of the results in the table: − (negative); + (positive); When at least one donor had a positive response, this is denoted as POS; conditions: 2 peptide pools
# Protocol: The capacity of human-PRAME-based SLPs to activate T cells was studied. The biological activity of the synthesized and purified SLPs was tested using PBMC from healthy donors. Monocytes were isolated using anti-CD14 beads by magnet activated cell sorting (MACS) following the protocol of the supplier (Miltenyi Biotec). In short, PBMCs were isolated by centrifugation over a Ficoll gradient and cryopreserved. To generate dendritic cells (DCs), approximately […] thawed PBMC were used for the isolation of CD14 positive cells. The cells were cultured for three days at 37° C. in 2 ml/well of IMDM 4% human serum (HS) containing 800 U/ml GM-CSF and 500 U/ml IL-4 (Peprotech). After 3 days 1 mL/well of IMDM 4% HS with GM-CSF (2400 U/mL) and IL-4 (1500 U/mL) was added to the monocytes-derived DCs and these adhered cells were cultured for an additional 3 days. On day 6, long peptides distributed over 2 pools were added to monocyte-derived DCs of naive donors at a 13 μM concentration and incubated overnight at 37° C. The next day (day 7) peptide-loaded DCs were harvested, irradiated (1000 rad), washed and mixed in a 1:10 ratio with autologous PBMC in IMDM 8% human serum in the presence of IL-7 (10 ng/ml) and IL-12p70 (100 μg/mL).
# On day 10 new DCs were generated and loaded, after 6 days, with SLPs on day 16 as described above. The next day, these peptide-loaded DCs were harvested, irradiated (1000 rad) and washed. Also the cultured T cells were harvested. Both were counted and mixed in a 1:10 ratio (DC:T) in IMDM 8% human serum in the presence of IL-7 (10 ng/ml) and IL-12p70 (100 μg/mL) for the first restimulation. On the same day, new DCs were generated as described above that were loaded with SLPs on day 23 as described above. The next day, peptide-loaded DCs were harvested, irradiated (1000 rad) and washed. Also the cultured and restimulated T cells were harvested. Both were counted and mixed in a 1:10 ratio (DC:T) in IMDM 8% human serum in the presence of IL-7 (10 ng/ml) and IL-12p70 (100 μg/mL) for the second restimulation.
# On this day 24, also test 1 was started in which DCs loaded with individual SLPs were cultured with harvested T cells from restimulation 1. For test 1, DCs and harvested T cells were cultured in a 1:10 ratio for 2 days after which cells were transferred to a coated ELISpot plate (see description below). On day 24, new DCs were generated as described above that were loaded with SLPs on day 30 as described above. The next day, peptide-loaded DCs were harvested, irradiated (1000 rad) and washed. Also the cultured twice restimulated T cells were harvested. Both were counted and mixed in a 1:10 ratio (DC:T) in IMDM 8% human serum in the presence of IL-2 (30 IU/mL) and IL-12p70 (100 μg/mL) for the third restimulation.
# On day 31, also test 2 was started in which DCs loaded with individual SLPs were cultured with harvested T cells from restimulation 2. For test 2, DCs and harvested T cells were cultured in a 1:10 ratio for 2 days after which cells were transferred to a coated ELISpot plate (see description below).
# The T cell cultures were restimulated three times in 1-week cycles using peptide loaded autologous moDCs. After the 2nd and 3rd restimulation, reactivity towards single SLPs was tested (test 1 and test 2, respectively). Reactivity was determined by measuring IFNy production using ELISpot.
# For ELISpot analysis, multiscreen plates were coated with an IFNy coating antibody overnight at 4° C. The next day, the plate was washed 4× with PBS and blocking was done using IMDM 8% HS at 37° C. for at least one hour. Each sample was tested in triplicate. As a positive control, phytoheamagglutinin (PHA, 1 μg/mL) was added to cells that were not stimulated with SLP after thawing. The plate was cultured overnight at 37° C. Thereafter, cells were discarded and the plate was washed using PBS/0.05% Tween-20. The IFNy detection antibody was diluted and added to each well and incubated for 2 hours at room temperature. […]
sequence,measurement,setting,value
"YPALMPLYACIQAKQAFTFSPTYKAFLSKQYMNLYPVAR (cysteinylated cysteine) [SEQ ID 6, HBV Pol fragment SLP with cysteinylated cysteine]",Assay (net peptide content) (mg/vial),[1]; Initial,0.21 mg/vial
same,Assay (net peptide content) (mg/vial),"[1]; Storage at 5 ± 3° C., T1M",0.20 mg/vial
same,Assay (net peptide content) (mg/vial),"[1]; Storage at 5 ± 3° C., T2M",0.21 mg/vial
same,Assay (net peptide content) (mg/vial),"[1]; Storage at 5 ± 3° C., T3M",0.22 mg/vial
same,Assay (net peptide content) (mg/vial),"[1]; Storage at −20 ± 5° C., T2M",0.20 mg/vial
same,Assay (net peptide content) (mg/vial),"[1]; Storage at −20 ± 5° C., T3M",0.22 mg/vial
"VLSRKYTSFPWLLGCTANWILRGTSFVYVPSALNPA [Cysteine (C) containing SEQ ID NO: 3, HBV Pol fragment, unmodified cysteine comparator, reference compound]",Purity (% a/a),[2]; Time 0 h,97.66 % a/a
same,Purity (% a/a),[2]; Time 1 h,93.48 % a/a
same,Purity (% a/a),[2]; Time 2 h,87.94 % a/a
same,Purity (% a/a),[2]; Time 3 h,84.12 % a/a
same,Purity (% a/a),[2]; Time 4 h,79.81 % a/a
"HLSLRGLPVCAFSSAGPCALRFTSA [Cysteine (C) containing SEQ ID NO: 1, reference compound]",Purity (% a/a),[2]; Time 0 h,95.01 % a/a
same,Purity (% a/a),[2]; Time 1 h,86.88 % a/a
same,Purity (% a/a),[2]; Time 2 h,78.20 % a/a
same,Purity (% a/a),[2]; Time 3 h,70.34 % a/a
same,Purity (% a/a),[2]; Time 4 h,64.12 % a/a
"AARLCCQLDPARDVLCLRPVGAESR [Cysteine (C) containing SEQ ID NO: 4, reference compound]",Purity (% a/a),[2]; Time 0 h,96.51 % a/a
same,Purity (% a/a),[2]; Time 1 h,90.72 % a/a
same,Purity (% a/a),[2]; Time 2 h,83.13 % a/a
same,Purity (% a/a),[2]; Time 3 h,77.16 % a/a
same,Purity (% a/a),[2]; Time 4 h,72.13 % a/a
"LLPRELFPPLFMAAFDGRHSQTLKAMVQAWPF (listed as Homo sapiens) [SEQ ID NO: 43, PRAME-based SLP]",ELISPOT IFNy,"[3]; donor BC298, Test 1",−
same,ELISPOT IFNy,"[3]; donor BC298, Test 2",−
same,ELISPOT IFNy,"[3]; donor BC305, Test 1",−
same,ELISPOT IFNy,"[3]; donor BC305, Test 2",−
same,ELISPOT IFNy,"[3]; donor BC306, Test 1",−
same,ELISPOT IFNy,"[3]; donor BC306, Test 2",−
same,ELISPOT IFNy,"[3]; donor BC312, Test 1",−
same,ELISPOT IFNy,"[3]; donor BC312, Test 2",−
same,ELISPOT IFNy,"[3]; donor BC321, Test 1",+
same,ELISPOT IFNy,"[3]; donor BC321, Test 2",−
